Experimental data published in the DeepSol protein solubility set.

Assay: soluble on expression in E. coli; label from the status in PepcDB or PDB records
In the case of “MGHHHHHHSHMAAPEAEVLSSAAVPDLEWYEKSEETHASQIELLETSSTQEPLNASEAFCPRDCMVPVVFPGPVSQEGCCQFTCELLKHIMYQRQQLPLPYEQLKHFYRKPSPQAEEMLKKKPRATTEVSSRKCQQALAELESVLSHLEDFFARTLVPRVLILLGGNALSPKEFYELDLSLLAPYSVDQSLSTAACLRRLFRAIFMADAFSELQAPPLMGTVVMAQGHRNCGEDWFRPKLNYRVPSRGHKLTVTLSCGRPSIRTTAWEDYIWFQAPVTFKGFRE”, the “soluble on expression in E. coli” value is reported as “not soluble”. With “MGHHHHHHSHMAAPGLRLGAGRLFEMPAVLERLSRYNSTSQAFAEVLRLPKQQLRKLLYPLQEVERFLAPYGRQDLHLRIFDPSPEDIARADNIFTATERNRIDYVSSAVRIDHAPDLPRPELEENIFISG” the “soluble on expression in E. coli” value was “not soluble”. In the case of “MGHHHHHHSHMAKTYDYLFKLLLIGDSGVGKTCVLFRFSEDAFNSTFISTIGIDFKIRTIELDGKRIKLQIWDTAGQERFRTITTAYYRGAMGIMLVYDITNEKSFDNIRNWIRNIEEHASADVEKMILGNKCDVNDKRQVSKERGEKLALDYGIKFMETSAKANINVENAFFTLARDIKAKMDKKLEGNSPQGSNQGVKITPDQQKRSSFFRCVLL”, the “soluble on expression in E. coli” value is reported as “soluble”. For “MGHHHHHHSHMANSAGSMANSAGSMHLVVESFPSYRDVTLFEGKRVSFYKRAQILVADTWSVLEGKGDGCFKDISSITMFADYRLPQVLAHLGALKYSDDLLKKLLKGEMLSYGDRQEVEIRGCSLWCVELIRDCLLELIEQKGEKPNGEINSILLDYYLWDYAHDHREDMKGIPFHRIRCIYY”, the “soluble on expression in E. coli” value was “not soluble”. For “MGHHHHHHSHMAPPRIGTHNGTFHCDEALACALLRLLPEYRDAEIVRTRDPEKLASCDIVVDVGGEYDPRRHRYDHHQRSFTETMSSLSPGKPWQTKLSSAGLIYLHFGHKLLAQLLGTSEEDSMVGTLYDKAGFKRAMDLVQEEFLQRLDFYQHSWLPARALVEEALAQRFQVDPSGEIVELAKGACPWKEHLYHLESGLSPPVAIFFVIYTDQAGQWRIQCVPKEPHSFQSRLPLPEPWRGLRDEALDQVSGIPGCIFVHASGFIGGHRTREGALSMARATLAQRSYLPQIS”, the “soluble on expression in E. coli” value was “soluble”. For “MGHHHHHHSHMDNCLAAAALNGVDRRSLQRSARLALEVLERAKRRAVDWHALERPKGCMGVLAREAPHLEKQPAAGPQRVLPGEREERPPTLSASFRTMAEFMDYTSSQCGKYYSSVPEEGGATHVYRYHRGESKLHMCLDIGNGQRKDRKKTSLGPGGSYQISEHAPEASQPAENISKDLYIEVYPGTYSVTVGSNDLTKKTHVVAVDSGQSVDLVFPV”, the “soluble on expression in E. coli” value was “not soluble”. With “MGHHHHHHSHMDVVKEIMAAIKQYETIIIHRHQRPDPDAIGSQVGLAELLRASFPEKNIYQVGGPVEGLEFLAEMDVITDDVYRGALVIVTDTANAPRISDARFSLGDQLIKIDHHPNDEPYGDLVWVNTNASSCSEIIVDFWQQHLAELTMTDNAARLLYAGIVGDTGRFLYPSTSAHTLAVAAQLRTFNFNAADLNRELDQMPLKVAKLAGYIYQNLEIDANGAARVVLPQSILNSYDIVDSETAAIVSMPGKIEDVLSWAIFVEQPEGYYRVRLRSKGPIINTIAKKHHGGGHPLASGANARDAAEIEVIYQEIQAACQEWAQK” the “soluble on expression in E. coli” value was “soluble”. For “MGHHHHHHSHMEETRAGRYIVRAGSGGQTEDTASGAESVLATLAAVRTRRRSVVCDGPPGSPTDSARHMSDLASLALTAEFGLGCLEAYVRINAGQVLPVVWPPGWNLVLQEIETDEDFKPEDVKAWSHYLCCQTRLAFVGRFVNEGVLSPDQQKKTAVCLISDEGYVFCYVREDTAVYYLARNLMEFARVGLRAVETLHCMRYLTSSLVKRYFRPLLRAWSLGLDTMARFIIRHHGQFMPLTYPPGTELRLCNLRCFENSVEGGHLLRNIKTAFGMRVLGLGTVSLKGENAPFPHLRWPVDLIPIVVAYTGAVYACDVRDDRYIRVGDNLNTFMCLGLNLLFENRRFSGHNGIYDRVPDCPKGRQHR”, the “soluble on expression in E. coli” value was “not soluble”. For “MGHHHHHHSHMEEVLEAAEKIRSMEVRGAARIARFAAETLMKFAEKASDEKFDEEMRFAAETLLNTRPTAVSLYNAINYVMRYSGESVEEKRQSVIRRAREFINWVETAQRKIGEIGEKRIKDGYTVMTHCNSSAALSVIKKAHENGKRVEVIATESRPRWQGHLTVKQLREAGIEVTLIVDSAVRYFINEVDCVVVGADTITANGALINKIGTSQIALAAKEARVPFMVAAETYKFSPKTLFGELVVIEERDAREVAPEEILKLGVKVRNPAFDVTPRDYIDVIITEIGAIPPEMAYIVITERLGYAGIEEEEITLNSRHFD”, the “soluble on expression in E. coli” value was “not soluble”. For “MGHHHHHHSHMEFLTFLKSDYTHANLVDKALQLLKERILKGDTLAYFLRGQLYFEEGWYEEALEQFEEIKEKDHQATYQLGVMYYDGLGTTLDAEKGVDYMKKILDSPCPKARHLKFAAAYNLGRAYYEGKGVKRSNEEAERLWLIAADNGNPKASVKAQSMLGLYYSTKEPKELEKAFYWHSEACGNGNLESQGALGLMYLYGQGIRQDTEAALQCLREAAERGNVYAQGNLVEYYYKMKFFTKCVAFSKRIADYDEVHDIPMIAQVTDCLPEFIGRGMAMASFYHARCLQLGLGITRDETTAKHYYSKACRLNPALADELHSLLIRQRI”, the “soluble on expression in E. coli” value was “not soluble”. In the case of “MGHHHHHHSHMERIVMPANYVHTRTTPFWTKETAPASIWRRHLDAGTRQGVYPRLCVMQGTIRYYGYADETSPEPVETLTIEAGQFGVFPPEKWHRIEALSDDTLFNVDFYVDPKILIEG”, the “soluble on expression in E. coli” value is reported as “soluble”. With “MGHHHHHHSHMEWKVKVRSDGTRYVAKRPVRDRLLKARALKIREERSGMTTDDDAVSEMKMGRYWSKEERKQHLIRAREQRKRREFMMQSRLECLREQQNGDSKPELNIIALSHRKTMKKRNKKILDNWITIQEMLAHGARSADGKRVYNPLLSVTTV” the “soluble on expression in E. coli” value was “not soluble”. For “MGHHHHHHSHMFDAAFDPVLTVNSGDSVTVECVSGGVEVMPPAESPYAIPSALQAIHDSNPPRIGPHILTGPIAIAGAEPGDILEVRIEAIEPNNDWGYCAVRPLAGTLPEDFPERYVSHIAVDAQRGVCKPEWGPELPLAPFFGTMGVAPPAKYGRLSSREPREHGGNMDNKELVAGSTLYLPVWVPGANFSVGDGHGRQGDGEVCVNALEMGLTGTFTFVLHKKANGAADIAPFAWPRAETPTHYVLMGFHEDLDLAMKQALRQTIDFITARSNLTRVQAYQFCSLAVDFRVTQTVNGEKGVHALLSKGLLF”, the “soluble on expression in E. coli” value was “not soluble”. With “MGHHHHHHSHMGLYHVGQAGLELLTSSDPPTSASQNAEITGVSHRAQSKAHNLQRKLRLSHKSSPPCTYTQHAGGVDSHPLTQDMCVIVNVIARPFDKCNCDIYLGLASELFVVSWVQLTVPYHWIQTLGNVILFCLDTAHRGHCDIAGHCT” the “soluble on expression in E. coli” value was “not soluble”. For “MGHHHHHHSHMHGPKPTVQEIVLELCPCNEIEPVDLVCHEQLGDSDDEIDEPDHAVNHHQHQLLARRDEQQRHTIQCTCCKCNNLLQLVVEASRENLRKLELLFMDSLNFVCPWCATETQ”, the “soluble on expression in E. coli” value was “not soluble”. With “MGHHHHHHSHMILEIRTKNFIFRTKHKLDFTPIGCDAKGRIVLGYTEAELCTRGSGYQFIHAADMLYCAESHIRMIKTGESGMIVFRLLTKNNRWTWVQSNARLLYKNGRPDYIIVTQRPLTDEEGTEHLRKRNTKLPFMF” the “soluble on expression in E. coli” value was “soluble”. With “MGHHHHHHSHMKDIGHLQHLAQRLQWNRRAVNICGMHGWTKDLSPHSRMPSMLEHVKHYMSC” the “soluble on expression in E. coli” value was “not soluble”. In the case of “MGHHHHHHSHMKNYKAIGKIGEGTFSEVMKMQSLRDGNYYACKQMKQRFESIEQVNNLREIQALRRLNPHPNILMLHEVVFDRKSGSLALICELMDMNIYELIRGRRYPLSEKKIMHYMYQLCKSLDHIHRNGIFHRDVKPENILIKQDVLKLGDFGSCRSVYSKQPYTEYISTRWYRAPECLLTDGFYTYKMDLWSAGCVFYEIASLQPLFPGVNELDQISKIHDVIGTPAQKILTKFKQSRAMNFDFPFKKGSGIPLLTTNLSPQCLSLLHAMVAYDPDERIAAHQALQHPYFQEQRKTEKRAL”, the “soluble on expression in E. coli” value is reported as “not soluble”. With “MGHHHHHHSHMKNYYYFLGQGLTLSPRLECSSTISAHCNLHLLGSSNSPVAASPVAGTTGTCHHDWLIFVFLVETGFHHIGQTGLEFLTSGDPPTLASKSAGITGVSHCAWPTFLLNDMRHSFNKNLVIIFYVPAIS” the “soluble on expression in E. coli” value was “not soluble”. In the case of “MGHHHHHHSHMKRSLSENSARSTADWAWEAVNPELAPVMKTVDTGQIPHSVSRPLRSQDSVFNSIQSNTGRSQGGWSYRDGNKNTSLKTWNKNDFKPQCKRTNLVANDGKNSCPVSSGAQQQKQLRIPEPPNLSRNKETELLRQTHSSKISGCTMRGLDKNSALQTLKPNFQQNQYKKQMLDDIPEDNTLKETSLYQLQFKEKASSLRIISAVIESMKYWREHAQKTVLLFEVLAVLDSAVTPGPYYSKTFLMRDGKNTLPCVFYEIDRELPRLIRGRVHRCVGNYDQKKNIFQCVSVRPASVSEQKTFQAFVKIADVEMQYYINVMNET”, the “soluble on expression in E. coli” value is reported as “not soluble”. For “MGHHHHHHSHMKVQGAGQLRLSIDAQDRVLLLHIIEGKGLISKQPGTCDPYVKISLIPEDSRLRHQKTQTVPDCRDPAFHEHFFFPVQEEDDQKRLLVTVWNRASQSRQSGLIGCMSFGVKSLLTPDKEISGWYYLLGEHLGRTKHLKVARRRL”, the “soluble on expression in E. coli” value was “soluble”. For “MGHHHHHHSHMLAWHVLMGNQVIWKSRDVDLVQSAFEVLRTMLPVGCVRIIPYSSQYEEAYRCNFLGLSPHVQIPPHVLSSEFAVIVEVHAAARSTLHPVGCEDDQSLSKYEFVVTSGSPVAADRVGPTILNKIEAALTNQNLSVDVVDQCLVCLKEEWMNKVKVLFKFTKVDSRPKEDTQKLLSILGASEEDNVKLLKFWMTGLSKTYKSHLMSTVRSPTASESRN”, the “soluble on expression in E. coli” value was “not soluble”. With “MGHHHHHHSHMLDVYACHCTLCQKWSGGIAMYLEACGQPQLAPLSPEPPYFSSSSRGERYFCSGCGCPLWFRLTDTDRYFIPWTLLELNEVDRRRLILAAEIYTETQPAFWRLTGQYARLSGKEVEEMDSPCQLAH” the “soluble on expression in E. coli” value was “not soluble”. With “MGHHHHHHSHMLEILYQDEWLVAVNKPSGWLVHRSWLDRDEKVVVMQTVRDQIGQHVFTAHRLDRPTSGVLLMGLSSEAGRLLAQQFEQHQIQKRYHAIVRGWLMEEAVLDYPLVEELDKIADKFAREDKGPQPAVTHYRGLATVEMPVATGRYPTTRYGLVELEPKTGRKHQLRRHLAHLRHPIIGDSKHGDLRQNRSGAEHFGLQRLMLHASQLSLTHPFTGEPLTIHAGLDDTWMQALSQFGWRGLLPENERVEFSAPSGQDGEISS” the “soluble on expression in E. coli” value was “soluble”. In the case of “MGHHHHHHSHMPVIQTESEHKPPVNGSYFAHVNPADGGCLLEKYSEKCHDFQCALLANLFASEGQPGKVIEVKAKRRTGPLNFVTCMRETLEKHYGNKPIGMGGTFIIQKGKVKSHIMPAEFSSCPLNSDEEVNKWLHFYEMKAPLVCLPVFVSRDPGFDLRLEHTHFFSRHGEGGHYHYDTTPDIVEYLGYFLPAEFLYRIGQPKETHSIGRD”, the “soluble on expression in E. coli” value is reported as “not soluble”. For “MGHHHHHHSHMQDGFLTVSIIDATNNRPIQNAVVNIYSMSNGSQSSSTLYQNLRSNESGQVTGLVLPAPDVDYSLQPSDVRPYSQYIVEAIADGYETVVIEGTQLLATIEARQGVPMSPRTRSKRSFSRQSELIFDIGEHTLYGTYPPKIPESNLKPLPPPTGFVVLDNPVVPEFIVVHDGLPEDSSAPNYWIPFKEYIKNIASSEIYSTWPEQTIYANVIAIISFTLNRVFTEWYRNKGYNFTITSTTAYDHKFINNRNLFEPINVVVDAIFNTFIKRPPTSRQPLLAQYCDGQKSQCPDQMTQWGSKDLGDQGYDYESILRYFYGDEIVFERAPIVSGVPVSFPGTTLQVGSSGQYVRTIQNQLNAISNSYPAVPKVIEDGIYGTDTENAVKIFQGIFGLPQSGVVDFKTWYEISRVYVATTRIASLNPLI”, the “soluble on expression in E. coli” value was “soluble”.
